We go through one substance from article PMC11901735.

pKd: −log10 of the molar value.

The target in assay [1] is GLP-1R of mouse pancreatic β-cells (mouse (endogenous in ddY mouse pancreas)) (UniProt O35659).
For assay [2], the target named is Recombinant human GLP-1R protein (human) (UniProt P43220). In words: SPR; Biacore T200; recombinant human GLP-1R (0.5 μM) immobilized on a CM5 sensor chip; peptides injected at four-fold serial dilutions (0, 0.1-100 nM); n = 3; 1:1 interaction model. A general note: SPR reads the build-up and loss of mass on a sensor chip optically.
Recombinant human GLP-1R protein (human), sequence (P43220 24-463): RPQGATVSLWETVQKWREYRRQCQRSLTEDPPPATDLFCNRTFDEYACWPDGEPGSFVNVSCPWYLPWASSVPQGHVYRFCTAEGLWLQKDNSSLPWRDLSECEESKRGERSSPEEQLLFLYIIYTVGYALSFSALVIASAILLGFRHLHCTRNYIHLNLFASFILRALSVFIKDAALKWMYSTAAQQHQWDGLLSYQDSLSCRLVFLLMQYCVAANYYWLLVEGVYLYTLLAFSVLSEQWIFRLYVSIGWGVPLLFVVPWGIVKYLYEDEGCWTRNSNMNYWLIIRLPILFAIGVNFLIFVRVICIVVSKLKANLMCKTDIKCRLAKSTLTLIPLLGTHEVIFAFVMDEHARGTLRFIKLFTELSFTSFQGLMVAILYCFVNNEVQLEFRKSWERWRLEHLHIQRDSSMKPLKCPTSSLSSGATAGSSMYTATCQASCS

GLP-1R of mouse pancreatic β-cells (mouse (endogenous in ddY mouse pancreas)), sequence (O35659 22-463): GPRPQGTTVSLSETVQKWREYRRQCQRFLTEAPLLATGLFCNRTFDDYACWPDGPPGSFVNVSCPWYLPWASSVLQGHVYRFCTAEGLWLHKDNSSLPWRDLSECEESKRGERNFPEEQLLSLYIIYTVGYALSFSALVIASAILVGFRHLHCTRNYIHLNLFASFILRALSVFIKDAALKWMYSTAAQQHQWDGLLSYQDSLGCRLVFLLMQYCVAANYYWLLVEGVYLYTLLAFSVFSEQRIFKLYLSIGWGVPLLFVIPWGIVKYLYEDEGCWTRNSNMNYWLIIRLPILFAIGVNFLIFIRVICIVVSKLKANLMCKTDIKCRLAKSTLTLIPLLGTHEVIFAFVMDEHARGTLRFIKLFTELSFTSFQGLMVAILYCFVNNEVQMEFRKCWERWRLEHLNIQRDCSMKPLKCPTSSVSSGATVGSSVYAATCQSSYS

By pKd is commonly meant the Kd on a negative log10 scale, so that one unit is a factor of ten. As to “I-Ex-4, Ex-4-C40 labeled with IPM at the additional C-terminal Cys (peptide)”, the radioactivity in the pancreas 5-120 min after i.v. administration of [^125I]I-Ex-4 to mice (highest at 60 min) (% injected dose per gram tissue) in assay [1] stood at 11.3. Further, the pKd in assay [2] is 7.55.
